According to publication PMC3782497, “Unique Structure and Dynamics of the EphA5 Ligand Binding Domain Mediate Its Binding Specificity as Revealed by X-ray Crystallography, NMR and MD Simulations” (PLoS ONE, 2013):
Bridge positions count the residues as written; N and C are the ends. Square brackets hold non-standard residues; d marks the D form. Primed or numbered codes have the meaning given here. Ends that are not written are not given here. PEG2′ = not defined here

Columns and labels:
rat EphA5 Fc = molecular target: T1, rat EphA5 Fc (rat, UniProt P54757 27-575); assay: ELISA; rat EphA5 Fc (1 µg/mL) held on Protein A-coated wells; different concentrations of synthetic WDC with 0.6 nM ephrin-A5 AP for 1 hour; bound AP detected with pNPP; IC50 by non linear regression; details: both partners purified
T1 construct: EphA5, rat, Fc fusion; source: bought: R&D Systems
T1 sequence (P54757 27-575): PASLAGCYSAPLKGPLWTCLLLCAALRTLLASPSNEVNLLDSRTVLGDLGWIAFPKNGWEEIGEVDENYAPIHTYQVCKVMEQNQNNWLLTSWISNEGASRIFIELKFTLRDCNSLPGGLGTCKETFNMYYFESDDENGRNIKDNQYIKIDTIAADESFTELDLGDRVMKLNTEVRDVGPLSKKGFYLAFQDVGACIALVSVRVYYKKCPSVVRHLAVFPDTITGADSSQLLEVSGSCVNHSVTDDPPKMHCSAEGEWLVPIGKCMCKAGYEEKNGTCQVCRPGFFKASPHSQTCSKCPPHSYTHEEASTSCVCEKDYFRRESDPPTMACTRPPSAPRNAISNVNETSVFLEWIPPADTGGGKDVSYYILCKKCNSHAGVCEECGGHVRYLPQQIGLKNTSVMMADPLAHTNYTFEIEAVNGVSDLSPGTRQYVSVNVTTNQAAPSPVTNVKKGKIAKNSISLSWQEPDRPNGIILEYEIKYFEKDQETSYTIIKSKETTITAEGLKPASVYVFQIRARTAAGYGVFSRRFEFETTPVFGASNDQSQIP

[1] = molecular target: human EphA5 ligand-binding domain (LBD), residues 59-235 (human, UniProt P54756 59-235, K232E (from the reverse primer; not stated by the paper) | C233A (from the …, disulfide bridges Cys137-Cys147 and Cys102-Cys220; 15N-labelled for the NMR titration); assay: ITC
Target sequence in this assay (P54756 59-235 K232E/C233A): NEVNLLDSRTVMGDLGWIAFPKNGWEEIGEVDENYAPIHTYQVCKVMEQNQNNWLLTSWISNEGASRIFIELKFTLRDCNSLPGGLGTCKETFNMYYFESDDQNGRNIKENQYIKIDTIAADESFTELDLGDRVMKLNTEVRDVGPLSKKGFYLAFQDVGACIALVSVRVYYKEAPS

[2] = molecular target: T2, human EphA5 ligand-binding domain (LBD), residues 59-235 (human, UniProt P54756 59-235, K232E (from the reverse primer; not stated by the paper) | C233A (from the …, disulfide bridges Cys137-Cys147 and Cys102-Cys220; 15N-labelled for the NMR titration); assay: ITC; EphA5 LBD in the cell, bacterially expressed WDC in the syringe; 10 mM phosphate buffer pH 6.3, 25°C; single binding site model; details: both partners purified
T2 construct: Cloned through BamHI into a modified pET32a and released by thrombin, so extra N-terminal residues (probably GS) may remain; also called EphA5 LBD; source: E. coli Rosetta-gami (DE3), purified (Ni-NTA, thrombin cleavage, gel filtration, Mono Q)
T2 sequence (P54756 59-235 K232E/C233A): as above

Binder | IC50 (rat EphA5 Fc) [µM] | Ka [1] [M⁻¹] | Kd [2] [µM]
WDCNGPYCHWLG[PEG2′]KK (disulfide 3-8, WDC peptide; two lysines joined to the peptide through (PEG)2, which is not an amino acid linker; also called synthetic WDC peptide; source: synthetic peptide (Anaspec, Inc.)) [modified WDC peptide (WDCNGPYCHWLG-(PEG)2-KK), synthetic] | ~50 | – | –
WDCNGPYCHWLG (disulfide 3-8 (inferred), 12-residue peptide previously identified in a phage-display screen on the extracellular domain of rat EphA5; Cloned through BamHI into a modified pGEX-4T-1; also called WDC peptide; recombinant peptide; source: E. coli Rosetta-gami (DE3), GST fusion, released by in-gel thrombin cleavage, HPLC purified) [WDC antagonistic peptide (WDCNGPYCHWLG), bacterially expressed] | – | 161000 | 6.2
